Changes are numbered by the printed parent chain.
Experiments:
AtBPC2 [1] = molecular target: T1, AtBPC2 (Arabidopsis thaliana, UniProt Q9LDE2 1-279); test: DPI-ELISA; DPI-ELISA: 2 pmol ds-bio DNA per well, crude E. coli extract in protein extraction buffer (HEPES, 100 mM salt per Additional file 1), 1 h, PBS-T washes pH 7.5; details: protein: recombinant; tags: N-terminal His (pET32b-GW); label: 5' biotin
T1 sequence: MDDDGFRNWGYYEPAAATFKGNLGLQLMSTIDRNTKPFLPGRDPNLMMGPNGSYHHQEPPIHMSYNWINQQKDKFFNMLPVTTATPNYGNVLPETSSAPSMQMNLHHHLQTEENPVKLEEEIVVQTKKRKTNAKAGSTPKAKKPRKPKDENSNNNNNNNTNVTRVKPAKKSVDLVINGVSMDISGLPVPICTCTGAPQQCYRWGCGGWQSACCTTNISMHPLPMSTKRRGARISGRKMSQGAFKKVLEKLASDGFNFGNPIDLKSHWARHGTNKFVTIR

AtbZIP63 = molecular target: T2, AtbZIP63 (Arabidopsis thaliana, UniProt B9DGI8 1-314); test: EMSA; DPI-ELISA: 2 pmol ds-bio DNA per well, crude E. coli extract in protein extraction buffer (HEPES, 100 mM salt per Additional file 1), 1 h, PBS-T washes pH 7.5; details: protein: recombinant; tags: C-terminal V5:His; chain copies: 2; label: 5' biotin (DPI-ELISA); 33P (EMSA)
T2 sequence: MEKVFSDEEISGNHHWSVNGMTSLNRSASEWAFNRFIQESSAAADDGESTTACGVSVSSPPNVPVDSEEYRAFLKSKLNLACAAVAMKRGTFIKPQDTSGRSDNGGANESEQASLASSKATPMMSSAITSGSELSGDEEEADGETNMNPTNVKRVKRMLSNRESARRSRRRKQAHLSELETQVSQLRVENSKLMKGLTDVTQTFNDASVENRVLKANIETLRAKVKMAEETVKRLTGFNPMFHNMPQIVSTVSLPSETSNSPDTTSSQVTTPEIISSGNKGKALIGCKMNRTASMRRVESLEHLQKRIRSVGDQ

AtBPC2 [2] = molecular target: T1, AtBPC2; test: competition DPI-ELISA; 1000 pmol DNA reduced binding irrespective of sequence; DPI-ELISA: 2 pmol ds-bio DNA per well, crude E. coli extract in protein extraction buffer (HEPES, 100 mM salt per Additional file 1), 1 h, PBS-T washes pH 7.5; details: protein: recombinant; tags: N-terminal His (pET32b-GW)
AtBPC2 [3] = molecular target: T1, AtBPC2; test: competition DPI-ELISA; 100-1000 pmol competitor vs 2 pmol GABio; DPI-ELISA: 2 pmol ds-bio DNA per well, crude E. coli extract in protein extraction buffer (HEPES, 100 mM salt per Additional file 1), 1 h, PBS-T washes pH 7.5; details: protein: recombinant; tags: N-terminal His (pET32b-GW)
AtWRKY33cDBD [4] = molecular target: T3, AtWRKY33cDBD (Arabidopsis thaliana, UniProt Q8S8P5 346-449); test: DPI-ELISA; DPI-ELISA: 2 pmol ds-bio DNA per well, crude E. coli extract in protein extraction buffer (HEPES, 100 mM salt per Additional file 1), 1 h, PBS-T washes pH 7.5; details: protein: recombinant; tags: C-terminal V5:His; label: 5' biotin (DPI-ELISA); 33P (EMSA)
T3 sequence (Q8S8P5 346-449): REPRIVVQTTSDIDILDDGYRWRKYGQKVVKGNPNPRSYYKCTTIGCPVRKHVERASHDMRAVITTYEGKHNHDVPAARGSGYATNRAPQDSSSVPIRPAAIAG

AtWRKY75DBD = AtWRKY75DBD (Arabidopsis thaliana, UniProt Q9FYA2 58-145); test: DPI-ELISA; up to 100 ug crude extract (data not shown); DPI-ELISA: 2 pmol ds-bio DNA per well, crude E. coli extract in protein extraction buffer (HEPES, 100 mM salt per Additional file 1), 1 h, PBS-T washes pH 7.5; details: protein: recombinant; tags: C-terminal V5:His; label: 5' biotin (DPI-ELISA); 33P (EMSA)
AtWRKY75DBD, sequence (Q9FYA2 58-145): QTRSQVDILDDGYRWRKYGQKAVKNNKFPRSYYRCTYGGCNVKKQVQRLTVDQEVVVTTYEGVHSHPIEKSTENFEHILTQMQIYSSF

AtWRKY50DBD = AtWRKY50DBD (Arabidopsis thaliana, UniProt Q8VWQ5 99-173); test: DPI-ELISA; not corrected for protein concentration in extract; DPI-ELISA: 2 pmol ds-bio DNA per well, crude E. coli extract in protein extraction buffer (HEPES, 100 mM salt per Additional file 1), 1 h, PBS-T washes pH 7.5; details: protein: recombinant; tags: C-terminal V5:His; label: 5' biotin (DPI-ELISA); 33P (EMSA)
AtWRKY50DBD, sequence (Q8VWQ5 99-173): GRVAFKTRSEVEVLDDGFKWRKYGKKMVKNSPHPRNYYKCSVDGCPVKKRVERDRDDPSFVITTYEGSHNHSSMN

AtWRKY11DBD [5] = molecular target: T4, AtWRKY11DBD (Arabidopsis thaliana, UniProt Q9SV15 229-325); test: competition DPI-ELISA; up to 50 pmol competitor; DPI-ELISA: 2 pmol ds-bio DNA per well, crude E. coli extract in protein extraction buffer (HEPES, 100 mM salt per Additional file 1), 1 h, PBS-T washes pH 7.5; details: protein: recombinant; tags: C-terminal V5:His
T4 sequence (Q9SV15 229-325): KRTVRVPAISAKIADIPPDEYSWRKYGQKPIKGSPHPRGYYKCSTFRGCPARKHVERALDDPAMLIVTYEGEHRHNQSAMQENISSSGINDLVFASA

AtWRKY11DBD [6] = molecular target: T4, AtWRKY11DBD; test: EMSA; DPI-ELISA: 2 pmol ds-bio DNA per well, crude E. coli extract in protein extraction buffer (HEPES, 100 mM salt per Additional file 1), 1 h, PBS-T washes pH 7.5; details: protein: recombinant; tags: C-terminal V5:His; label: 5' biotin (DPI-ELISA); 33P (EMSA)
AtWRKY33cDBD [7] = molecular target: T3, AtWRKY33cDBD; test: DPI-ELISA; also at higher protein amounts (data not shown); DPI-ELISA: 2 pmol ds-bio DNA per well, crude E. coli extract in protein extraction buffer (HEPES, 100 mM salt per Additional file 1), 1 h, PBS-T washes pH 7.5; details: protein: recombinant; tags: C-terminal V5:His; label: 5' biotin (DPI-ELISA); 33P (EMSA)

B1: GA-probe (GABio) (dsDNA)
DNA 1: TAAAGGAGAAAGAAAGAGAAAGAGAGTTTC
DNA 2: GAAACTCTCTTTCTCTTTCTTTCTCCTTTA
B1: binds (AtBPC2 [1]).

B2: Cm-probe (dsDNA)
DNA 1: AATTCTCCCTTATCTGCAGTCAGCATCCGG
DNA 2: CCGGATGCTGACTGCAGATAAGGGAGAATT
B2: no binding (AtbZIP63).

B3: GAm-probe, non-biotinylated competitor (dsDNA)
DNA 1: TAATGCAGCAAGTAAGACTACGACTGTTTC
DNA 2: GAAACAGTCGTAGTCTTACTTGCTGCATTA
B3: no binding (AtBPC2 [2]).

B4: GA-probe, non-biotinylated competitor (dsDNA)
DNA 1: B1 DNA 1
DNA 2: B1 DNA 2
B4: binds (AtBPC2 [3]).

B5: GAm-probe (GAmBio) (dsDNA)
DNA 1: B3 DNA 1
DNA 2: B3 DNA 2
B5: no binding (AtBPC2 [1]).

B6: C-probe (C-box) (dsDNA)
DNA 1: B2 DNA 1 with C17A, A18C
DNA 2: B2 DNA 2 with T13G, G14T
B6: binds (AtbZIP63).

B7: W2-probe (W2Bio) (dsDNA)
DNA 1: AAATTATTCAGCCATCAAAAGTTGACCAATAAT
DNA 2: ATTATTGGTCAACTTTTGATGGCTGAATAATTT
For B7, the binding result (AtWRKY33cDBD [4]) was “binds”, the binding result (AtWRKY75DBD) was “no binding” and the binding signal (AtWRKY50DBD) was > 2 fold absorbance vs AtWRKY33cDBD.

B8: W2m-probe, non-biotinylated competitor (dsDNA)
DNA 1: B7 DNA 1 with G24A, A25C
DNA 2: B7 DNA 2 with T9G, C10T
B8: no binding (AtWRKY11DBD [5]).

B9: W2m-probe (W2mBio) (dsDNA)
DNA 1: B7 DNA 1 with G24A, A25C
DNA 2: B7 DNA 2 with T9G, C10T
B9: no binding (AtWRKY11DBD [6]); no binding (AtWRKY75DBD); no binding (AtWRKY33cDBD [7]).
